Measured values: US20010006793A1, “MODULATORS OF EUKARYOTIC CASPASES” (priority 1998, published 2001)

Molecular target: T1, human caspase-8β (Homo sapiens, UniProt Q14790)
T1 construct: expressed in transfected cells; host or cells: Saccharomyces cerevisiae FY250, single-copy ARS/CEN vector YCpGAL1-caspase-8β-L, GAL1 promoter
Test: Yeast screening method: suppression of caspase-8β-induced lethality in S. cerevisiae FY250 double transformants on galactose medium
Assay type: cell-based
Conditions: for identified as a caspase inhibitor (product of human brain cDNA suppressing caspase-8β-induced cell death): FY250 double transformants, GAL1-driven expression, galactose-containing medium; for Caspase Inhibitor: Table 1 Caspase Modulators, identified using the screening method of the invention
Excerpt: The invention includes a screening method of determining whether a compound is a caspase modulator. […] A difference between the viability indicator of the first cell and the viability indicator of the second cell is an indication that the compound is a caspase modulator.
As described herein, the transformant expresses the caspase when an inducer of the inducible promoter of the caspase vector is provided to the caspase transformant. When the caspase transformant expresses the caspase, cytotoxicity ensues in the caspase transformant. If an inhibitor of the caspase is provided to the caspase transformant prior to the onset of cytotoxicity, the caspase transformant may be enabled to survive expression of the caspase or the onset of cytotoxicity may be delayed.
The gene encoding p35 was cloned into a yeast-based expression vector designated YCpGAL1-U (wherein U designates a URA3 selectable marker) to yield a YCpGAL1-p35-U inhibitor vector. Yeast cells were co-transformed with the inhibitor vector, YCpGAL1-p35-U, and with the caspase vector, YCpGAL1-caspase-8β-L, to yield a double transformant. Double transformants were plated on SC-leucine-uracil medium supplemented with dextrose to repress GAL1 promoter function. Serial ten-fold dilutions of individual double transformants grown in SC-leucine-uracil medium containing dextrose were prepared and spotted onto SC-leucine-uracil medium comprising dextrose or galactose.
Individual viable colonies of double transformant are isolated, and the test vector comprising the unknown cDNA is isolated.
The screening method used in this Example was performed as follows. A yeast double transformant was prepared by transforming S. cerevisiae strain FY250 with two yeast expression vectors. The first yeast expression vector comprised cDNA encoding a self-activating form of human caspase-8β operably linked to a GAL1 promoter and a LEU2 selectable marker. This first vector was a single copy vector and was designated YCpGAL1-caspase-8β-L. A plurality of second yeast expression vectors was used, each comprising a single random human cDNA sequence operably linked to a GAL1 promoter and a URA3 selectable marker. The cDNA sequences used to generate the plurality of second yeast expression vectors were obtained from a library of cDNAs prepared from human brain cells. The second vectors were multicopy vectors.
Double transformants were propagated on plates containing SC-leucine-uracil agar comprising dextrose. Colonies of double transformants were replica plated on plates containing medium comprising galactose, whereby expression of caspase-8β and of any product encoded by the cDNA of the second vector was induced. […] The second vector was recovered from individual colonies of double transformants which were able to survive on the galactose-containing medium and used, along with the first vector, to transform fresh FY250 cells. […] The identity of individual products encoded by the cDNA of individual second vectors was established by determining the nucleotide sequence of the cDNA and comparing the sequence with databases of known human gene sequences, including Genbank, the EST Database, and the Human Genome Database.

T1 sequence (Q14790 1-464 isoform Q14790-2): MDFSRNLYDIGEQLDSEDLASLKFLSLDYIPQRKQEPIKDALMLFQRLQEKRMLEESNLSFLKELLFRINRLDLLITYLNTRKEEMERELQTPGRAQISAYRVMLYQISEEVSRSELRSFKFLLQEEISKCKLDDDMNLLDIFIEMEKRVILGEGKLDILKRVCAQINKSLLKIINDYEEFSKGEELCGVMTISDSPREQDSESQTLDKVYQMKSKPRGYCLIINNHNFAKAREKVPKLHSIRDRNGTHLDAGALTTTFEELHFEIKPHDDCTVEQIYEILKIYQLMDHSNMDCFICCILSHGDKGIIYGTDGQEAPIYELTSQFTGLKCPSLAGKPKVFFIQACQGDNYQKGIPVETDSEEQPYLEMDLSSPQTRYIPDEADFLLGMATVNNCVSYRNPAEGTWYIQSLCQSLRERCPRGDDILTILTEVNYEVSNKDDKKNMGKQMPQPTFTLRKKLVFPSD

| Substance | identified as a caspase inhibitor (product of human brain cDNA suppressing caspase-8β-induced cell death) | Caspase Inhibitor |
| --- | --- | --- |
| Human Cytochrome b: product encoded by human brain cDNA, identified as caspase inhibitor | caspase inhibitor | ✓ |
| Human Synaptophysin p38: product encoded by human brain cDNA, identified as caspase inhibitor | caspase inhibitor | ✓ |
| Human Tat Binding Protein: product encoded by human brain cDNA; also known as TBP, SUG1, and 26S proteosomal p45 subunit ATPase | caspase inhibitor | ✓ |
| IETD/fmk [reference compound] |  | ✓ |
| z-VAD-fmk [reference compound] |  | ✓ |
